Here are results for two molecules from publication PMC6457126 (Proteins, 2018).

The target in test [1] is histone H4K5ac (Homo sapiens) (UniProt P62805). As to the kind of experiment: ITC. The following applies: cited from earlier work.
Test [2] deals with T1, ATAD2 CO C1057A/C1079A/C1101A bromodomain (triple cysteine mutant) (human, UniProt Q6PL18 981-1108, C1057A | C1079A | C1101A).
T1 sequence: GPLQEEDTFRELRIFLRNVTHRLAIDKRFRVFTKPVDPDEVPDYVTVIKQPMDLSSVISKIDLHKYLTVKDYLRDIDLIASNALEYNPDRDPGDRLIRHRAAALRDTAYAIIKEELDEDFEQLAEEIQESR
As to the kind of experiment: ITC.

No end group written: not given here.

Regarding ATAD2 bromodomain (from UniProt Q6PL18), in test [1], the Kd is 22 µM.

B1: histone H4K5ac peptide (residues 1-10) (peptide)
peptide: SGRGK(Ac)GGKGL
B1: in test [2], the Kd stood at 113 µM, the dH was -4.2 kcal/mol and the “stoichiometry N” value stood at 0.84.
